According to patent US20060234285A1 (Human Genome Sciences, published 2006):

Experiments:
Test in all cases: flow cytometry on transiently transfected cells
[1] = target: T1, RANK, on transiently transfected cells (UniProt Q9Y6Q6 30-616, limits assumed)
T1 construct: whole, on cells
T1 sequence (looked up): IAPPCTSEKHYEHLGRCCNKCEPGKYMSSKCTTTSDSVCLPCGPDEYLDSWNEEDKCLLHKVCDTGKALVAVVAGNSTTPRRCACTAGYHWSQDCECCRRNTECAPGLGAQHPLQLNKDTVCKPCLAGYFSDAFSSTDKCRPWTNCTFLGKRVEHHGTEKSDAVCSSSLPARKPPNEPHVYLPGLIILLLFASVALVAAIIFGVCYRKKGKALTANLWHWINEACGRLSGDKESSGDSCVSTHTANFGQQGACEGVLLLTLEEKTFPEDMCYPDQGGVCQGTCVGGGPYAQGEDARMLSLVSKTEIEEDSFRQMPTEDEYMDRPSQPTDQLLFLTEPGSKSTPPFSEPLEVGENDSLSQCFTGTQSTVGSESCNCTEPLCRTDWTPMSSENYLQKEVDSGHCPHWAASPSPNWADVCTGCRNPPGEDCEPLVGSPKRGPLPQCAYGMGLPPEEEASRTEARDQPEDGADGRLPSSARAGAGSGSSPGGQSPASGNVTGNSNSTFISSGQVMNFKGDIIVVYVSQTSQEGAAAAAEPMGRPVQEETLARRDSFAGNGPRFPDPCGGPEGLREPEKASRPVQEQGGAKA
Method: (§1) One million cells, in 0.1 ml of FACS buffer (PBS, 0.1% BSA, 0.1% NaN₃), were incubated with 0.1-1 microgram of protein or antibody at RT for 15 min. The cells were washed with 3 ml of FACS buffer, reacted with biotinylated primary antibody, and stained with PE-conjugated secondary antibody at RT for 15 min. Cells were then washed again, resuspended in 0.5 microgram/ml of propidium iodide, and live cells were gated and analyzed on a FACScan using the CellQuest software (BD Biosciences).

[2] = target: T2, AITR, on transiently transfected cells (UniProt Q9Y5U5 26-241, limits assumed)
T2 construct: whole, on cells
T2 sequence (looked up): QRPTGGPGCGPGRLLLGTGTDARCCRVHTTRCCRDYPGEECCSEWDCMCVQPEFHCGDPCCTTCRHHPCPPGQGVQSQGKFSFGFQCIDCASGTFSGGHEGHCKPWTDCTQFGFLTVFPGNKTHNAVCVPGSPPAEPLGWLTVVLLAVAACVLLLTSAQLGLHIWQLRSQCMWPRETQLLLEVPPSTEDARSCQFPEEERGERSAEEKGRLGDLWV
Method: as §1

[3] = target: T3, 4-1BB, on transiently transfected cells (UniProt Q07011 24-255)
T3 construct: whole, on cells
Method: as §1

[4] = target: T4, DR4, on transiently transfected cells (UniProt O00220 24-468, limits assumed)
T4 construct: whole, on cells
T4 sequence (looked up): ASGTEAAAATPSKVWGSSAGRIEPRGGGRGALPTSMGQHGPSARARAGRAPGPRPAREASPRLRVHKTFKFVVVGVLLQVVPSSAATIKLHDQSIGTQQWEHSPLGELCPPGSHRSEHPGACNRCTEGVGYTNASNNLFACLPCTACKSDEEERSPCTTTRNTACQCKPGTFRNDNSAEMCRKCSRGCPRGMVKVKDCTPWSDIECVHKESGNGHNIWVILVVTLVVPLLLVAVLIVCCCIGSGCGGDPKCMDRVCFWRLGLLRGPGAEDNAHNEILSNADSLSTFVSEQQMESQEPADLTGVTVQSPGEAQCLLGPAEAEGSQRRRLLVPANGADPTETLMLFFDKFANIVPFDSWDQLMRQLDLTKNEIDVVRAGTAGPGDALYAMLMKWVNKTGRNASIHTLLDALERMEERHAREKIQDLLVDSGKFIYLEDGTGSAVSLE
Method: as §1

[5] = target: T5, DR5, on transiently transfected cells (UniProt O14763 56-440, limits assumed)
T5 construct: whole, on cells
Method: as §1

[6] = target: T6, BCMA, on transiently transfected cells (UniProt Q02223 1-184, limits assumed)
T6 construct: whole, on cells
T6 sequence (looked up): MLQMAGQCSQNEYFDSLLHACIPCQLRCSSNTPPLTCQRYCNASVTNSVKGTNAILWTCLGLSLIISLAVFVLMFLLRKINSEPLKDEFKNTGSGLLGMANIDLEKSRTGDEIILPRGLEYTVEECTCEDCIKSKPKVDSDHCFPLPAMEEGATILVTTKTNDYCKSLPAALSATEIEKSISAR
Method: as §1

[7] = target: T7, CD27, on transiently transfected cells (UniProt P26842 20-260, limits assumed)
T7 construct: whole, on cells
T7 sequence (looked up): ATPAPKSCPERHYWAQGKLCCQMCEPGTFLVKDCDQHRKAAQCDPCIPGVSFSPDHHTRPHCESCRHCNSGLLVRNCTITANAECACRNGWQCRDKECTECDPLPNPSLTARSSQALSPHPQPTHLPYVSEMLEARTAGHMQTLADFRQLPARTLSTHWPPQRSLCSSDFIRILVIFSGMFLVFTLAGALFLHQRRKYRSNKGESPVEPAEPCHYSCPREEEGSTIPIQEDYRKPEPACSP
Method: as §1

[8] = target: T8, DcR1, on transiently transfected cells (UniProt O14798 26-236, limits assumed)
T8 construct: whole, on cells
T8 sequence (looked up): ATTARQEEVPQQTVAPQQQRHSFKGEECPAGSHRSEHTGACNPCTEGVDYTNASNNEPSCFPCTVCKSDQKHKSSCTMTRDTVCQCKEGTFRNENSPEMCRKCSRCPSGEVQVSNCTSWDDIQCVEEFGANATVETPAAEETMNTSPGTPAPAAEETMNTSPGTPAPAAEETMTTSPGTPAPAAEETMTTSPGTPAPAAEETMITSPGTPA
Method: as §1

[9] = target: T9, DcR2, on transiently transfected cells (UniProt Q9UBN6 56-386, limits assumed)
T9 construct: whole, on cells
T9 sequence (looked up): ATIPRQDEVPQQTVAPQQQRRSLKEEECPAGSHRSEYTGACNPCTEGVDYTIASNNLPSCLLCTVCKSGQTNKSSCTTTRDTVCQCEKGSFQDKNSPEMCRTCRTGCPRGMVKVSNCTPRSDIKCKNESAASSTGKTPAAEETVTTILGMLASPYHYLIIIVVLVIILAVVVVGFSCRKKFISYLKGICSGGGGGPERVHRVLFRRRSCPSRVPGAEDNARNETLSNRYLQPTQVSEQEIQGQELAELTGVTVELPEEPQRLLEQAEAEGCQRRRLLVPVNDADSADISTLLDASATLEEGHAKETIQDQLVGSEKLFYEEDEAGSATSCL
Method: as §1

Measured: binding result

T3 sequence (Q07011 24-255): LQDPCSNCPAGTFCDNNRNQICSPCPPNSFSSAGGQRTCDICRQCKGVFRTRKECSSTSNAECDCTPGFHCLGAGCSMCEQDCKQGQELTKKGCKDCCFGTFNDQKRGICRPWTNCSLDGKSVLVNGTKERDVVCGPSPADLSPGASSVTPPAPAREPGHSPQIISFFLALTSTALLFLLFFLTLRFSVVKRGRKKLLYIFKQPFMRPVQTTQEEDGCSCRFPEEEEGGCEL

B1: FLAG-tagged soluble form of TNF-gamma-beta (aa 72-251) (ligand, human, UniProt O95150 72-251, looked up, not shown: small tags and cut ends)
chain: LKGQEFAPSHQQVYAPLRADGDKPRAHLTVVRQTPTQHFKNQFPALHWEHELGLAFTKNRMNYTNKFLLIPESGDYFIYSQVTFRGMTSECSEIRQAGRPNKPDSITVVITKVTDSYPEPTQLLMGTKSVCEVGSNWFQPIYLGAMFSLQEGDKLMVNVSDISLVDYTKEDKTFFGAFLL
notes: also called FLAG-TL1β; FLAG-TNF-gamma-beta
no binding: all assays above
